Measured values as given in article PMC11225796.
Like-named read-outs stand apart in the source and are kept apart here.

Key:
Test in all cases: cross-linking
MBP-Z(6His) [1] = molecular target: MBP-Z(6His)
MBP-Z(6His) [2] = molecular target: MBP-Z(6His); remark: listed apart in the source
MBP-Z(6Tyr) [3] = molecular target: MBP-Z(6Tyr)
MBP-Z(6His) [4] = molecular target: MBP-Z(6His); remark: listed apart in the source
MBP-Z(6Tyr) [5] = molecular target: MBP-Z(6Tyr); remark: listed apart in the source
MBP-Z(6Tyr) [6] = molecular target: MBP-Z(6Tyr); remark: listed apart in the source
MBP-Z(6His) [7] = molecular target: MBP-Z(6His); remark: listed apart in the source
MBP-Z(6Tyr) [8] = molecular target: MBP-Z(6Tyr); remark: listed apart in the source
MBP-Z(6His) [9] = molecular target: MBP-Z(6His); remark: listed apart in the source
MBP-Z(6Tyr) [10] = molecular target: MBP-Z(6Tyr); remark: listed apart in the source

| Substance | cross-linking efficiency (day 0) (MBP-Z(6His) [1]) [%] | cross-linking efficiency (day 1) (MBP-Z(6His) [1]) [%] | cross-linking efficiency (day 3) (MBP-Z(6His) [1]) [%] | cross-linking efficiency (day 5) (MBP-Z(6His) [1]) [%] | cross-linking efficiency (MBP-Z(6His) [2]) [%] | cross-linking efficiency (MBP-Z(6Tyr) [3]) [%] | cross-linking efficiency (MBP-Z(6His) [4]) [%] | cross-linking efficiency (MBP-Z(6Tyr) [5]) [%] | cross-linking efficiency (MBP-Z(6His) [1]) [%] | cross-linking efficiency (1 mM Na2SiO3) (MBP-Z(6His) [1]) [%] | cross-linking efficiency (no Na2SiO3) (MBP-Z(6His) [1]) [%] | cross-linking efficiency (MBP-Z(6Tyr) [6]) [%] | cross-linking efficiency (1 mM Na2SiO3) (MBP-Z(6Tyr) [6]) [%] | cross-linking efficiency (no Na2SiO3) (MBP-Z(6Tyr) [6]) [%] | cross-linking efficiency (MBP-Z(6His) [7]) [%] | cross-linking efficiency (MBP-Z(6Tyr) [8]) [%] | cross-linking efficiency (MBP-Z(6His) [9]) [%] | cross-linking efficiency (MBP-Z(6Tyr) [10]) [%] |
| --- | --- | --- | --- | --- | --- | --- | --- | --- | --- | --- | --- | --- | --- | --- | --- | --- | --- | --- |
| Zspa affibody with FSY at site 36, Afb(36FSY) (designed binder) | 60.2 | 47.7 | 27.5 | 17.9 |  |  |  |  |  |  |  |  |  |  |  |  |  |  |
| Zspa affibody with PFY at site 36, Afb(36PFY) (designed binder) |  |  |  |  | 37.4 | 26.8 | 21.4 | 5.3 | 5 | 18.8 | 36.9 | 27.5 | 45.7 | 24.7 | 35.3 | 33.7 | 21.3 | 44.5 |
